Measurements as given in article PMC8204385 (Biophysical Journal, 2021).

B1: Human SHP-1 with an N-terminal 6x His tag (enzyme)
chain: not shown
B2: SLAM peptide (cytoplasmic tail of SLAM, 77 aa, singly phosphorylated) (peptide)
peptide: QLRRRGKTNHYQTTVEKKSLTIYAQVQKPGPLQKKLDSFPAQDPCTTIYVAATEPVPESVQETNSITVYASVTLPES
modifications: biotin on the N-terminus; phosphotyrosine in the ITSM (position 327 in the native sequence)
notes: cytoplasmic tail of SLAM, 77 aa; only the last tyrosine (327) is phosphorylated; source: synthetic peptide (Peptide Protein Research)

What was measured:
[1] = molecular target: B2; assay: cell-based or functional assay
[2] = molecular target: B1; assay: SPR; biotinylated peptide on streptavidin-coupled CM5 chip (25-100 RU), SHP-1 injected 45 s at 10 uL/min; Biacore T200; 37°C; 10 mM HEPES pH 7.4, 150 mM NaCl, 3 mM EDTA, 0.05% Tween 20, 1 mM dithiothreitol; constants from the fit of the extended MPDPDE model; conditions: both partners purified

Row | ratio kcat(tethered)/kcat(solution) from the SPR assay (allosteric activation of SHP-1) [1] [fold] | Kd [2] [µM] | koff [2] [s⁻¹] | kon [2] [M⁻¹ s⁻¹] | Binder
1 | 6.2 | – | – | – | B1
2 | – | 130 | 1.7 | 20000 | B2
